Measurements reported in patent US20240101647A1 (VIB VZW, published 2024).

B1: VHH3.42 (VHH)
VHH: QVQLQESGGGLVQPGGSLRLSCAASGSAVSINDMGWYRQPPGKQRELVATITKTGSTNYADSVKGRFTISRDNAKNAVYLEMNSLKPEDTATYYCNAWLPYGMGPDYYGMELWGKGTQVTVSS
B2: VHH3.117 (VHH)
VHH: QVQLQESGGGLVQPGGSLRLSCAASGKAVSISDMGWYRQPPGKQRELVATITKTGSTNYADSAQGRFTISRDNTKSAVYLEMKSLKPEDTAVYYCNAWLPYGMGPDYYGMELWGKGTQVTVSS
B3: VHH3.92 (VHH)
VHH: QVQLQESGGGLVQPGGSLRLSCAASGKAVSISDMGWYRQPPGKQRELVATITKTGNTNYADSAQGRFTISRDNAKSAVYLEMASLKPEDTAVYYCNAWLPYGMGPDYYGMELWGKGTQVTVSS

Legend:
[1] = target: T1, BSA (UniProt P02769 25-607); experiment: ELISA, coated BSA
T1 construct: also called Bovine Serum Albumin

[2] = target: SARS-CoV-2 spike protein on VSV-delG pseudovirus particles or on cells (SARS-CoV-2, UniProt P0DTC2 14-1273); experiment: cell-based or functional assay

T1 sequence (P02769 25-607 limits assumed): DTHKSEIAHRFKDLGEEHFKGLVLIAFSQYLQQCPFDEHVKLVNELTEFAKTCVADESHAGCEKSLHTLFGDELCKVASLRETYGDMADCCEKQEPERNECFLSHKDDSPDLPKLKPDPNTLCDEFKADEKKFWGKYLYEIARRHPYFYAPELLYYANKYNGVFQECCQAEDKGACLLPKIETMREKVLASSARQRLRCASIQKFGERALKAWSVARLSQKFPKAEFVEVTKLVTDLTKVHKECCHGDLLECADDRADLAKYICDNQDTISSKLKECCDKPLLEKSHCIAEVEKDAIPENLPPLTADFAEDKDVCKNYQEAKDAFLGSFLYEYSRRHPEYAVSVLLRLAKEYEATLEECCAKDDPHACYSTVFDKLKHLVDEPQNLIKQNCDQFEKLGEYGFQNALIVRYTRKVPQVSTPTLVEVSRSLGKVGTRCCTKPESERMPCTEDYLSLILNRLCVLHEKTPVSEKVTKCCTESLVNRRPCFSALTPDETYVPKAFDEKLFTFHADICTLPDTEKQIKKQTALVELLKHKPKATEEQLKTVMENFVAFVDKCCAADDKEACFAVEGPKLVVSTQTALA

Row | Binder | binding result [1] | neutralization relative to VHH72_h1_S56A [2]
1 | B1 | no binding | ~6 fold
2 | B2 | no binding | ~6 fold
3 | B3 |  | ~6 fold
